The data set deals with the molecule itself. Nature of the data set: SEC.

B1: Bacillus subtilis YsiA (natural protein, B. subtilis, UniProt P94548 1-194, looked up)
chain: MKQKRPKYMQIIDAAVEVIAENGYHQSQVSKIAKQAGVADGTIYLYFKNKEDILISLFKEKMGQFIERMEEDIKEKATAKEKLALVISKHFSLLAGDHNLAIVTQLELRQSNLELRQKINEILKGYLNILDGILTEGIQSGEIKEGLDVRLARQMIFGTIDETVTTWVMNDQKYDLVALSNSVLELLVSGIHNK
For B1, the “stoichiometry N” value was 2.

For the origin of these results see paper doi:10.1101/2023.10.16.562645 (bioRxiv, 2023).
